Laboratory results from patent publication US20160264649A1.

What was measured:
Assay in all cases: cell-based or functional assay
[1] = molecular target: HIV-1 Env of isolate MG RM-C-022 (subtype C) (HIV-1)
[2] = molecular target: HIV-1 92WR024 Env (HIV-1)
[3] = molecular target: HIV-1 Env of isolate MG RM-C-025 (subtype C) (HIV-1)
[4] = molecular target: HIV-1 MGRM-AG-005 Env (HIV-1)
[5] = molecular target: HIV-1 MGRM-AE-005 Env (HIV-1)
[6] = molecular target: HIV-1 92UG031 Env (HIV-1)
[7] = molecular target: HIV-1 MGRM-A-004 Env (HIV-1)
[8] = molecular target: HIV-1 Env of isolate MG RM-C-023 (subtype C) (HIV-1)
[9] = molecular target: HIV-1 92WR026 Env (HIV-1)
[10] = molecular target: HIV-1 MGRM-A-010 Env (HIV-1)
[11] = molecular target: HIV-1 MGRM-A-002 Env (HIV-1)
[12] = molecular target: HIV-1 MGRM-AG-006 Env (HIV-1)
[13] = molecular target: HIV-1 93WR029 Env (HIV-1)
[14] = molecular target: HIV-1 94KE105 Env (HIV-1)
[15] = molecular target: HIV-1 MGRM-AG-013 Env (HIV-1)
[16] = molecular target: HIV-1 MGRM-AE-007 Env (HIV-1)
[17] = molecular target: HIV-1 MGRM-AE-002 Env (HIV-1)
[18] = molecular target: HIV-1 92WR020 Env (HIV-1)
[19] = molecular target: HIV-1 Env of isolate MG RM-C-027 (subtype C) (HIV-1)
[20] = molecular target: HIV-1 92WR021 Env (HIV-1)
[21] = molecular target: HIV-1 Env of isolate MG RM-C-024 (subtype C) (HIV-1)
[22] = molecular target: HIV-1 MGRM-AG-001 Env (HIV-1)
[23] = molecular target: HIV-1 94UG103 Env (HIV-1)
[24] = molecular target: HIV-1 MGRM-AE-004 Env (HIV-1)
[25] = molecular target: HIV-1 MGRM-AE-008 Env (HIV-1)
[26] = molecular target: HIV-1 MGRM-A-013 Env (HIV-1)
[27] = molecular target: HIV-1 MGRM-A-001 Env (HIV-1)
[28] = molecular target: HIV-1 MGRM-A-008 Env (HIV-1)
[29] = molecular target: HIV-1 MGRM-A-007 Env (HIV-1)
HIV-1 VLGCA1 Env (HIV-1) = molecular target: HIV-1 VLGCA1 Env (HIV-1)
[30] = molecular target: HIV-1 Env of isolate MG RM-C-026 (subtype C) (HIV-1)
[31] = molecular target: HIV-1 MGRM-AG-009 Env (HIV-1)
[32] = molecular target: HIV-1 MGRM-AG-011 Env (HIV-1)
[33] = molecular target: HIV-1 MGRM-AE-006 Env (HIV-1)
[34] = molecular target: HIV-1 MGRM-A-005 Env (HIV-1)
[35] = molecular target: HIV-1 MGRM-AG-008 Env (HIV-1)
[36] = molecular target: HIV-1 92RW008 Env (HIV-1)
HIV-1 CMU02 Env (HIV-1) = molecular target: HIV-1 CMU02 Env (HIV-1)
[37] = molecular target: HIV-1 92UG037 Env (HIV-1)
[38] = molecular target: HIV-1 93UG077 Env (HIV-1)
[39] = molecular target: HIV-1 Env of isolate MG RM-C-028 (subtype C) (HIV-1)
[40] = molecular target: HIV-1 MGRM-AG-012 Env (HIV-1)
[41] = molecular target: HIV-1 MGRM-AG-002 Env (HIV-1)
[42] = molecular target: HIV-1 Env of isolate MG RM-C-019 (subtype C) (HIV-1)
[43] = molecular target: HIV-1 MGRM-A-003 Env (HIV-1)
[44] = molecular target: HIV-1 92WR009 Env (HIV-1)
[45] = molecular target: HIV-1 MGRM-A-009 Env (HIV-1)
[46] = molecular target: HIV-1 MGRM-A-014 Env (HIV-1)
[47] = molecular target: HIV-1 MGRM-A-012 Env (HIV-1)
[48] = molecular target: HIV-1 Env of isolate MG RM-C-020 (subtype C) (HIV-1)
[49] = molecular target: HIV-1 92TH021 Env (HIV-1)
[50] = molecular target: HIV-1 MGRM-A-011 Env (HIV-1)
[51] = molecular target: HIV-1 MGRM-AE-001 Env (HIV-1)
[52] = molecular target: HIV-1 MGRM-A-006 Env (HIV-1)
[53] = molecular target: HIV-1 MGRM-AE-003 Env (HIV-1)
[54] = molecular target: HIV-1 MGRM-AG-003 Env (HIV-1)

Chain of 5345_I01 (PGT-137) (antibody) (VH): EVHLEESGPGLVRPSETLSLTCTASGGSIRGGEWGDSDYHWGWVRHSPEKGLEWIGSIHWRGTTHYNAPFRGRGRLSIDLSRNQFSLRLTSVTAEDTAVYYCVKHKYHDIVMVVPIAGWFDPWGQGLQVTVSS
Chain of 5345_I01 (PGT-137) (antibody) (VL): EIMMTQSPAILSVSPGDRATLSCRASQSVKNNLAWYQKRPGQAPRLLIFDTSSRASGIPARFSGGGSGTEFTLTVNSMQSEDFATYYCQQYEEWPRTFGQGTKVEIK

In the case of 5345_I01 (PGT-137) (antibody), the IC50 [1] is reported as > 50 µg/mL, the IC50 [2] is reported as > 50 µg/mL and the IC50 [3] is reported as > 50 µg/mL. The IC50 [4] was > 50 µg/mL, the IC50 [5] was > 50 µg/mL and the IC50 [6] was > 50 µg/mL. The IC50 [7] was > 50 µg/mL, the IC50 [8] was 0.23 µg/mL and the IC50 [9] was 0.092 µg/mL. For the same substance, the IC50 [10] was > 50 µg/mL, the IC50 [11] was > 50 µg/mL and the IC50 [12] was 28.3 µg/mL. For the same substance, the IC50 [13] was > 50 µg/mL, the IC50 [14] was 18.5 µg/mL and the IC50 [15] was > 50 µg/mL. The IC50 [16] was > 50 µg/mL, the IC50 [17] was > 50 µg/mL and the IC50 [18] was 5 ng/mL. For the same substance, the IC50 [19] was > 50 µg/mL, the IC50 [20] was 3.52 µg/mL and the IC50 [21] was > 50 µg/mL. The IC50 [22] was > 50 µg/mL, the IC50 [23] was > 50 µg/mL and the IC50 [24] was > 50 µg/mL. The IC50 [25] was > 50 µg/mL, the IC50 [26] was 49.2 µg/mL and the IC50 [27] was > 50 µg/mL. The IC50 [28] was > 50 µg/mL, the IC50 [29] was > 50 µg/mL and the IC50 (HIV-1 VLGCA1 Env (HIV-1)) was > 50 µg/mL. For the same substance, the IC50 [30] was 0.011 µg/mL, the IC50 [31] was > 50 µg/mL and the IC50 [32] was > 50 µg/mL. For the same substance, the IC50 [33] was > 50 µg/mL, the IC50 [34] was > 50 µg/mL and the IC50 [35] was > 50 µg/mL. For the same substance, the IC50 [36] was 148 ng/mL, the IC50 (HIV-1 CMU02 Env (HIV-1)) was > 50 µg/mL and the IC50 [37] was > 50 µg/mL. The IC50 [38] was > 50 µg/mL, the IC50 [39] was > 50 µg/mL and the IC50 [40] was > 50 µg/mL. The IC50 [41] was > 50 µg/mL, the IC50 [42] was > 50 µg/mL and the IC50 [43] was > 50 µg/mL. The IC50 [44] was > 50 µg/mL, the IC50 [45] was > 50 µg/mL and the IC50 [46] was 18600 ng/mL. For the same substance, the IC50 [47] was > 50 µg/mL, the IC50 [48] was > 50 µg/mL and the IC50 [49] was > 50 µg/mL. The IC50 [50] was > 50 µg/mL, the IC50 [51] was > 50 µg/mL and the IC50 [52] was > 50 µg/mL. The IC50 [53] was > 50 µg/mL and the IC50 [54] was > 50 µg/mL.

In the case of 4877_D15 (PGT-122) (antibody), the IC50 [2] is reported as > 50 µg/mL, the IC50 [4] is reported as 33.9 µg/mL and the IC50 [5] is reported as > 50 µg/mL. The IC50 [6] was > 50 µg/mL, the IC50 [7] was > 50 µg/mL and the IC50 [9] was 0.036 µg/mL. The IC50 [10] was 2.51 µg/mL, the IC50 [11] was 0.017 µg/mL and the IC50 [12] was 0.028 µg/mL. For the same substance, the IC50 [13] was > 50 µg/mL, the IC50 [14] was 0.056 µg/mL and the IC50 [15] was 0.521 µg/mL. The IC50 [16] was > 50 µg/mL, the IC50 [17] was > 50 µg/mL and the IC50 [18] was 9 ng/mL. It also gave an IC50 [20] of 0.021 µg/mL, an IC50 [22] of 14.5 µg/mL and an IC50 [23] of 2.04 µg/mL. The IC50 [24] was > 50 µg/mL, the IC50 [25] was > 50 µg/mL and the IC50 [26] was 2.47 µg/mL. For the same substance, the IC50 [27] was > 50 µg/mL, the IC50 [28] was > 50 µg/mL and the IC50 [29] was > 50 µg/mL. The IC50 (HIV-1 VLGCA1 Env (HIV-1)) was > 50 µg/mL, the IC50 [31] was 0.128 µg/mL and the IC50 [32] was > 50 µg/mL. The IC50 [33] was > 50 µg/mL, the IC50 [34] was > 50 µg/mL and the IC50 [35] was > 50 µg/mL. The IC50 [36] was 3 ng/mL, the IC50 (HIV-1 CMU02 Env (HIV-1)) was > 50 µg/mL and the IC50 [37] was 0.068 µg/mL. For the same substance, the IC50 [38] was 0.084 µg/mL, the IC50 [40] was > 50 µg/mL and the IC50 [41] was > 50 µg/mL. It also gave an IC50 [43] of 3.79 µg/mL, an IC50 [44] of 42.4 µg/mL and an IC50 [45] of 0.012 µg/mL. The IC50 [46] was 7 ng/mL, the IC50 [47] was 0.257 µg/mL and the IC50 [49] was > 50 µg/mL. The IC50 [50] was > 50 µg/mL, the IC50 [51] was > 50 µg/mL and the IC50 [52] was > 50 µg/mL. For the same substance, the IC50 [53] was > 50 µg/mL and the IC50 [54] was 43.7 µg/mL.

For 4858_P08 (PGT-123) (antibody), the IC50 [2] was > 50 µg/mL, the IC50 [4] was 0.149 µg/mL and the IC50 [5] was > 50 µg/mL. For the same substance, the IC50 [6] was > 50 µg/mL, the IC50 [7] was > 50 µg/mL and the IC50 [9] was 0.012 µg/mL. It also gave an IC50 [10] of 0.705 µg/mL, an IC50 [11] of 0.011 µg/mL and an IC50 [12] of 0.014 µg/mL. The IC50 [13] was > 50 µg/mL, the IC50 [14] was 0.024 µg/mL and the IC50 [15] was 3.37 µg/mL. The IC50 [16] was > 50 µg/mL, the IC50 [17] was > 50 µg/mL and the IC50 [18] was 2 ng/mL. It also gave an IC50 [20] of 0.005 µg/mL, an IC50 [22] of 2.51 µg/mL and an IC50 [23] of 0.678 µg/mL. The IC50 [24] was > 50 µg/mL, the IC50 [25] was > 50 µg/mL and the IC50 [26] was 0.565 µg/mL. The IC50 [27] was > 50 µg/mL, the IC50 [28] was > 50 µg/mL and the IC50 [29] was > 50 µg/mL. The IC50 (HIV-1 VLGCA1 Env (HIV-1)) was > 50 µg/mL, the IC50 [31] was 0.073 µg/mL and the IC50 [32] was > 50 µg/mL. For the same substance, the IC50 [33] was > 50 µg/mL, the IC50 [34] was > 50 µg/mL and the IC50 [35] was 19.2 µg/mL. For the same substance, the IC50 [36] was 3 ng/mL, the IC50 (HIV-1 CMU02 Env (HIV-1)) was > 50 µg/mL and the IC50 [37] was 0.023 µg/mL. For the same substance, the IC50 [38] was 0.028 µg/mL, the IC50 [40] was > 50 µg/mL and the IC50 [41] was > 50 µg/mL. The IC50 [43] was 0.495 µg/mL, the IC50 [44] was 15.7 µg/mL and the IC50 [45] was 0.004 µg/mL. The IC50 [46] was 3 ng/mL, the IC50 [47] was 0.192 µg/mL and the IC50 [49] was > 50 µg/mL. The IC50 [50] was > 50 µg/mL, the IC50 [51] was > 50 µg/mL and the IC50 [52] was > 50 µg/mL. For the same substance, the IC50 [53] was > 50 µg/mL and the IC50 [54] was > 50 µg/mL.
